Measured values from article PMC11382887, “Molecular mechanism of HNF-1A–mediated HNF4A gene regulation and promoter-driven HNF4A-MODY diabetes”.

Columns and labels:
[1] = biological target: T1, HNF-1A DD-DBD (HNF-1A 1-279) (UniProt P20823 1-279); test: ITC; text refers to ref 36; Methods also list RA among the titrations done here; ITC: 20 mM HEPES pH 7.5, 200 mM NaCl, 1 mM TCEP, 30 C, 250 uM dsDNA into 50 uM protein; BLI: streptavidin sensor with BiotinTEG dsDNA, buffer not in material; conditions: protein: recombinant; tags: His6 removed by TEV; chain copies: 2; label: 5' BiotinTEG on forward strand (BLI only); blunt
[2] = biological target: T1, HNF-1A DD-DBD (HNF-1A 1-279); test: BLI; ITC: 20 mM HEPES pH 7.5, 200 mM NaCl, 1 mM TCEP, 30 C, 250 uM dsDNA into 50 uM protein; BLI: streptavidin sensor with BiotinTEG dsDNA, buffer not in material; conditions: protein: recombinant; tags: His6 removed by TEV; chain copies: 2; label: 5' BiotinTEG on forward strand; blunt
[3] = biological target: T1, HNF-1A DD-DBD (HNF-1A 1-279); test: ITC; ITC: 20 mM HEPES pH 7.5, 200 mM NaCl, 1 mM TCEP, 30 C, 250 uM dsDNA into 50 uM protein; BLI: streptavidin sensor with BiotinTEG dsDNA, buffer not in material; conditions: protein: recombinant; tags: His6 removed by TEV; chain copies: 2; label: 5' BiotinTEG on forward strand (BLI only); blunt
[4] = biological target: T1, HNF-1A DD-DBD (HNF-1A 1-279); test: BLI; kinetic Kd (koff/kon); kon ~3x lower, koff ~3x higher; ITC: 20 mM HEPES pH 7.5, 200 mM NaCl, 1 mM TCEP, 30 C, 250 uM dsDNA into 50 uM protein; BLI: streptavidin sensor with BiotinTEG dsDNA, buffer not in material; conditions: protein: recombinant; tags: His6 removed by TEV; chain copies: 2; label: 5' BiotinTEG on forward strand (BLI only); blunt
[5] = biological target: T1, HNF-1A DD-DBD (HNF-1A 1-279); test: ITC; increase vs WT not significant; ITC: 20 mM HEPES pH 7.5, 200 mM NaCl, 1 mM TCEP, 30 C, 250 uM dsDNA into 50 uM protein; BLI: streptavidin sensor with BiotinTEG dsDNA, buffer not in material; conditions: protein: recombinant; tags: His6 removed by TEV; chain copies: 2; label: 5' BiotinTEG on forward strand (BLI only); blunt
[6] = biological target: T1, HNF-1A DD-DBD (HNF-1A 1-279); test: ITC; 2:1 protein:DNA stoichiometry; ITC: 20 mM HEPES pH 7.5, 200 mM NaCl, 1 mM TCEP, 30 C, 250 uM dsDNA into 50 uM protein; BLI: streptavidin sensor with BiotinTEG dsDNA, buffer not in material; conditions: protein: recombinant; tags: His6 removed by TEV; chain copies: 2; label: 5' BiotinTEG on forward strand (BLI only); blunt
[7] = biological target: T1, HNF-1A DD-DBD (HNF-1A 1-279); test: BLI; kinetic Kd (koff/kon); ITC: 20 mM HEPES pH 7.5, 200 mM NaCl, 1 mM TCEP, 30 C, 250 uM dsDNA into 50 uM protein; BLI: streptavidin sensor with BiotinTEG dsDNA, buffer not in material; conditions: protein: recombinant; tags: His6 removed by TEV; chain copies: 2; label: 5' BiotinTEG on forward strand (BLI only); blunt

T1 sequence (P20823 1-279): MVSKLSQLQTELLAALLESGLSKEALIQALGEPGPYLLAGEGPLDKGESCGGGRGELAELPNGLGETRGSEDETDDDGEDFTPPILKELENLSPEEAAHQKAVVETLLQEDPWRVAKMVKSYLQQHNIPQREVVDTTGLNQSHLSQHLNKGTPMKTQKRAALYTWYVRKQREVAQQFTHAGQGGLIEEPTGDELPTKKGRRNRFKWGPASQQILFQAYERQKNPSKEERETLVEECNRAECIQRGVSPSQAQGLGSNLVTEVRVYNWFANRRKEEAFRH

B1: RA (rat albumin promoter) (dsDNA)
DNA 1: CTTGGTTAATAATTCACCAGA
DNA 2: TCTGGTGAATTATTAACCAAG
Q: For B1, which Kd [1] is on record?
A: 100 ± 50 nM

B2: Randomized sequence (dsDNA)
DNA 1: TCATCATATCATGCTATAAAT
DNA 2: ATTTATAGCATGATATGATGA
Q: Does B2 bind [2]?
A: no binding

B3: P2 -181G>T (dsDNA)
DNA 1: ACTGTTTACTCTTTAACGTAT
DNA 2: ATACGTTAAAGAGTAAACAGT
Q: Which Kd [3] does the source give for B3 here?
A: 700 nM

Q: And the binding signal [4]?
A: ~10 fold Kd vs P2 WT

B4: P2 -181G>A (dsDNA)
DNA 1: ACTGATTACTCTTTAACGTAT
DNA 2: ATACGTTAAAGAGTAATCAGT
Q: B4 was tested. Which Kd [5] did it give?
A: 600 nM

B5: P2 WT (P2-HNF4A promoter) (dsDNA)
DNA 1: ACTGGTTACTCTTTAACGTAT
DNA 2: ATACGTTAAAGAGTAACCAGT
Q: With B5 as the binder, how does the Kd [6] read?
A: 304 ± 134 nM

B6: P2 -169C>T (dsDNA)
DNA 1: ACTGGTTACTCTTTAATGTAT
DNA 2: ATACATTAAAGAGTAACCAGT
Q: With B6 as the binder, how does the Kd [3] read?
A: 1200 nM

Q: What about the “Kd fold change vs P2 WT” value [7] of the same binder?
A: ~5 fold Kd vs P2 WT
